Measured values taken from the DeepSol protein solubility set.

test: soluble on expression in E. coli; label from the status in PepcDB or PDB records

| Sequence | soluble on expression in E. coli |
| --- | --- |
| MGSDKIHHHHHHLRPDLEHYYLIDQYLENKLTGQELAAFEQQLMQDKAFANEVQEQRMLNNLILEAELKSVRSQIEKDLLNMQTPSFFRMHWQWISAGALCLLGSLFFMLPGKKDIQTVSLQKSAASHIEKENNPDIAPVENTTQKTATALNLPAKTDISDIVTRTQATDTAQAGSLVIAGTPVIVPVNTKTEPALETTAGEENKKTDCSLTKITSVITTENSCMNTETGSIHIDKISGGIAPYTYTLNNKKIKEKNVSALGAGIYEVKISDRNGCLSEQKISILEKNCTPAIQQGTKFNINPMLGETCSIAFDTDKKGSLTIYNRSGKIVYRVTNPSLDYIEWNGSDGTGALAEAGLYVYLIDYTDGTKVTGEVTITR | not soluble |
| MGSDKIHHHHHHLRRLLNTLYVTTPDSYLAREGENILIRLEEKIVFRIPSHNIEAIVYFGYPGASPSLLGLCAEKGITVSFFSPNGRFLARVEGPQTGNVLLRRKQYRMADEENQVPVLAKYFIAAKILNSRAVLQRGRRDHPDKVGDSIERSIALLAGSVKKVFDSENLNDIRGLEGDAAQRYFSEVDNLILEQKQDFFMAARSRRPPLDNVNALLSFFYTLLVHECRAALESVGLDPAVGFLHRDRPGRPSLALDLMEELRPYLGDRMVLSLINRKQINKDDFITKENGAVYVLPDTRKMLLTVWQKRKQEEIIHPYLEEKIPIGLLPYTQALLLARFLRGDLDAYPAFIWK | not soluble |
| MGSDKIHHHHHHLSCCGQIGKITVGNGIWGILEEGMQSKAGTADQGWALEEKLDEFNRHQHPFNGSGADESFAYVIKKGDQVVGGVAASSDDNAIGYIELLWVDETMRRQGLGRALLATVEQALQAAGCKRVRLETFDYQAPAFYLENGYHEFGKLNYDYAGVIEYFFVKMLSLPIGYNIPPAFSIEAAEDLAMEAIENKLHAYNVKMKPLLQQKMGVTFTFLAEENGQCIGGIFGYSTMYKIGYIESLWVAETNRHAGVGTALVDVLVNALKDFGCPIVHLDTMSYQGAAFYKALGFEQFGQLTYPEIDAAEVFFVKHLVSVGERTINANK | not soluble |
| MGSDKIHHHHHHLTWPEASKAASENGSTLVWPFGACEQHGPHLPLITDTFFAENILIKTLNRLPENMPIWMMPSQSIGFSPEHQAFPGTLSLSADVLISMVTDVGQQIASMGFNRLVFFNAHGGQIGLLQAVSRQLRIQCPSIAVLPCFLWSGVPGLDQLLPEKEVEEGLHAALAETSLMLHMARDLVRNDSYLEIKNVDKQIVTTPKGWSLEGASPCAWLTEDLSSSGVIGDASSSNSELGAALENALVDHWIALFTSLLESDWPPIRSERPVSSS | not soluble |
| MGSDKIHHHHHHMAANNTITFYDLALSTGATISPFVWATKYALKHKGFDLDVVPGGFTGILERTGGKTERLPAIVDDGEFVLDSWGIVEYLDAKYPDRPVLIPHESVAATLKALDNWFWNAAVGPWMFCFCQDYRDLSLPQDHEYVTHSREKMLGRKLEEVQAGREERLPKISAALEPLRAALAQHQWLGGSSPNYADYRIMGGILFTASVCKTPVLANDDPLRDWIERCLDLYGGLGRHPGLFPLFGLEQREGDPDLFNRAAGQGGIYKRNTGPESTRAETQRITEGMKK | not soluble |
| MGSDKIHHHHHHMAATFLDIAITPDVMDVQHEMGSDSLWQTPRSRRQADRFGDSEAGMIATRDSFYLATVSQSGWPYIQHRGGPPGFLHLLDDITLAMADFGGNRQYITTGNLRGSDRACLFLMDYPRRARLKIYATVEVLAAEDHPQLLAQVAPANYRARIERLFLFHLQAFDWNCPQHITPRYSAQQVAEYSQNLQQRIHDLEQENQRLQQQLARRGE | not soluble |
| MGSDKIHHHHHHMAAVAHVKIDAAGEKRVLYLVDKSGFGGVQTIAYTLMRHGVDERIGMDFFFLRNINDRFGMEDVREPNVFYSRATHRYSLRPFVEILRFIREKKVSILHLNGNKSIILGLVIKKLFQPTIKIIAHEHGGVFDYSRWYAAFLKSFRNSFDLFITISNYRKHFLVERCLVAPSAIRVIDNFVDPARLATASASACGHTDRCDSEGDKPFVIGYVGGLSRIKGCDVLIRALPPLRERLGNFRVMIAGDGPARAELEELVAALGLGDIVSFLGFVDPPGIAYAQFDMMVIPSRSEEGPICLYEAWMMGLPVVASNAPVLNERIRDGETGILFQSDEPCDLAEKIYSVCRNPDVAAHIRAGGSCEAARHTVERYRGDLRDVYLSL | not soluble |
| MGSDKIHHHHHHMACGRMYHFNVFAYGVEEILREVSKKGTESDIRLYNRKEEDGVMTFIEPIKYPDKVSSLTDSIYPTDLFIINGENLDKYFAETVIALDLFGKTRGIIVASEDKQSTIRKLLKDTNIQPEFFSGRPMEIIDRIKAFKIERNEQDTLVVIDHYFKVKSVGTVILGFVLSGKIRKHQDLYLSGINREVQVRSIQVNDVDFDEAEAGTRVGVALKNVEVEELSRGMFLAEKPFEYTNQVKDSVVFHKSLKGRDTMSDPYISDLMNFVKCNPEGDAYTTRFKLPLLKDSFVMADQNGFPRVVGYSKVKR | not soluble |
| MGSDKIHHHHHHMADKRTEGSGKGGAKAAGKGGLGEVVLLSGGNPQIAKGYGDAPVQAYIAAMPGWKRAVGERLDAIVERTVPGVYKAVKWNSPFYGFEGEGWFLSFHCMTKYIKVAFFRGASLQPLPPGASKQKDVRYLDIYEDAPFDEARFADWVAQASRLPGERM | not soluble |
| MGSDKIHHHHHHMADLCVNLVPLFDALPQDEKMQIEKLVQHKNYQKGEVIIDPTINDNLVIVADGNAKQYTLDEDGYENVLQILHTGDYIGEDWLFGQKNINNYVEATEHSEICLLKRQDLLKLMHKQPELSIRLLELSIVKVSEMQKQIHLMALPKVEDRLLKYLQTYADEIGKNNFTLPLKMKDLALYLGTTPETLSRKFALLEKQGQLKRQLRRIELFEN | not soluble |
| MGSDKIHHHHHHMADNKIIQHVYIVGSKGIPANYGGFETFVEKLTAGQENRQIKYHVASRFDNSEQAGKKQRFEYNGADVFSIDVPNIGSAQAIVYDYKALKEAIRISKQNQDKHPIFYVLANRIGPFAKHFAKEIHALGGRFYLNPDGHEWARAKWPKPVRKYWKYSEKKMVAAADLIIADNPEIEKYIKKEYSSFHPQTTYIAYGTDVQRSKLTMKDQKVRDWFKQKRITENNYFLVVGRFVPENNYETMIREFMTSRTKKDFVLVTNVEKNRFYERLKQRTHFDQDPRIKFVGTVYDQELLKYIRENAFAYFHGHEVGGTNPSLLEALSMTRLNMLIDVPFNRAVAKEGAMYWNKAIGNLTAQINQTETYDKKRIIDYTQAARKRVTDEFTWESIIAKYEELFVS | not soluble |
| MGSDKIHHHHHHMAEAQLSLNLDIKHDASLSDFSGPGWMSIIDAVRQLHVGLIGQLYLFGSPATGKSHLLSAICESFIEMDKSAICLSLNELIHTDVNVLSSLENFSLIAIDDLEVIEQNSQWQEALFHLINRSREGQRQLLFAANKPASELPFQLRDLLTRLAQAPSFKVPTGHDLADREALLQSILRRRGWQFDERIANYLLTEGPHRIGAMMEVLNYIQPMFSNLGRSNISKAVIGDALRTIDEQTLAAELADIAQESQVDNDAADQDQHSQHTMPLDF | not soluble |
| MGSDKIHHHHHHMAETFPLLAAQPIYDNKNRFYAVELLYRSALNLTAETVGDTAATSEVVFNLCAGITSQTEHYDATAFINVSSEFLVSQSFLPLEPDKVVIELVERIKPTRAVVNAVARWYEKGFRFALDDFEFDPAWEPLLQYASYIKVDVSTLTLAQARVFKQKLSGFKGKWLAERVEDEATKQAYEELGFELFQGYYFAKPAIVYGTRLEPSSLQLAKVLSLCFEEEPDLTELSRVISEDPQLSVCLLKIVNSPLYPTASPITRVKDVIMRLGIEKLRRWIALIGAVTASSPEASRMVLVRAQMCYELAKWKSSPGLDADQCYFVGLLSGVDIMLGVDKASFFEKLPLSEQTRKAVEDCDGPMGQCLRIALKLERLVRMKEGLDKVDSRLLTTYQSVSTKVQELFNTI | not soluble |
